B1: ACF of nuclear extract treated with calf intestinal alkaline phosphatase (CIAP) (other, rat, UniProt Q923K9-2 1-586, looked up)
chain: MESNHKSGDGLSGTQKEAALRALVQRTGYSLVQENGQRKYGGPPPGWDTTPPERGCEIFIGKLPRDLFEDELIPLCEKIGKIYEMRMMMDFNGNNRGYAFVTFSNKQEAKNAIKQLNNYEIRNGRLLGVCASVDNCRLFVGGIPKTKKREEILSEMKKVTEGVVDVIVYPSAADKTKNRGFAFVEYESHRAAAMARRRLLPGRIQLWGHPIAVDWAEPEVEVDEDTMSSVKILYVRNLMLSTSEEMIEKEFNSIKPGAVERVKKIRDYAFVHFSNREDAVEAMKALNGKVLDGSPIEVTLAKPVDKDSYVRYTRGTGGRNTMLQEYTYPLSHVYDPTTTYLGAPVFYTPQAYAAIPSLHFPATKGHLSNRALIRTPSVRGAAGVRGLGGRGYLAYTGLGRGYQVKGDKRQDKLYDLLPGMELTPMNTISLKPQGVKLAPQILEEICQKNNWGQPVYQLHSAIGQDQRQLFLYKVTIPALASQNPAIHPFTPPKLSAYVDEAKRYAAEHTLQTLGIPTEGGDAGTTAPTATSATVFPGYAVPSATAPVSTAQLKQAVTLGQDLAAYTTYEVYPTFAVTTRGDGYGTF
modifications: phosphates removed by CIAP treatment of the extract
B2: HA epitope-tagged APOBEC-1 stably expressed in McArdle RH7777 cells (enzyme, UniProt P38483 1-229, looked up, not shown: small tags and cut ends)
chain: MSSETGPVAVDPTLRRRIEPHEFEVFFDPRELRKETCLLYEINWGGRHSIWRHTSQNTNKHVEVNFIEKFTTERYFCPNTRCSITWFLSWSPCGECSRAITEFLSRYPHVTLFIYIARLYHHADPRNRQGLRDLISSGVTIQIMTEQESGYCWRNFVNYSPSNEAHWPRYPHLWVRLYVLELYCIILGLPPCLNILRRKQPQLTFFTIALQSCHYQRLPPHILWATGLK
notes: also called HA-tagged APOBEC-1

Experiments:
[1] = target: T1, rat APOBEC-1 (endogenous, rat liver nuclear extract and McArdle cells) (rat); experiment: cell-based or functional assay
T1 sequence (P38483 1-229, looked up): B2 chain

[2] = target: B1; experiment: co-immunoprecipitation with ACF CT antibody from CIAP-treated McArdle nuclear extract, anti-HA western blot, densitometry (FIG. 2A)

## B1
[1]
  fold decrease in in vitro ApoB mRNA editing activity of CIAP-treated nuclear extract (poisoned-primer extension): 2.5 fold

## B2
[2]
  fold reduction of APOBEC-1 recovered with immunoprecipitated ACF (CIAP-treated against control nuclear extract): 3 fold
